# Reference: US20240343810A1 (published 2024)
# T1: Biotinylated human ICOS protein (human, UniProt Q9Y6W8 21-140, limits assumed, biotinylated (sites not given))
# T1 construct: Captured on the NLC chip in the avidity SPR
# T1 sequence: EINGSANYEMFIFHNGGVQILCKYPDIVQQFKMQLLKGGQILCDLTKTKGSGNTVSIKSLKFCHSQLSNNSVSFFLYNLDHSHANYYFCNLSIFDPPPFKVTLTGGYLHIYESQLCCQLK
# Legend:
# [1] = target: T1, Biotinylated human ICOS protein; assay: SPR ProteOn avidity format, biotinylated human ICOS on NLC chip; calculated on-rate
# Experimental: (§1) Biotinylated human ICOS protein diluted at 7.5 μg/mL in running buffer (1× HBS-EP+ Buffer Technova, cat. No. H8022) was captured on a NLC sensor chip (Bio-Rad, cat No 1765021). The surface was then blocked using biocytin (Sigma Aldrich, cat No B1758) at 1 mg/mL.
# (§2) The assay was carried out at 25° C.
# The buffer injection (i.e. 0 nM) was used to double reference the sensorgrams. […]
# [2] = target: T1, Biotinylated human ICOS protein; assay: SPR ProteOn avidity format, biotinylated human ICOS on NLC chip, antibody analyte, 25 C
# Experimental: as §1, §2
# (§3) The buffer injection (i.e. 0 nM) was used to double reference the sensorgrams. The analysis was carried out using the equilibrium model inherent to the ProteOn's analysis software for each mAb² construct.
# [3] = target: T1, Biotinylated human ICOS protein; assay: SPR ProteOn avidity format, biotinylated human ICOS on NLC chip, antibody analyte; apparent KD from equilibrium, 25 C
# Experimental: as §1, §2, §3
kon [1],koff [2],Kd [3],Binder
13900 M⁻¹ s⁻¹,0.000354 s⁻¹,25.4 nM,"STIM001_289_LAGA (bispecific antibody, V domains shown, not shown: a dimerising Fc or GST) VH: QVQVVQSGAEVKKPGASVKVSCKASGYTFSTFGITWVRQAPGQGLEWMGWISAYNGDTNYAQNLQGRVIMTTDTSTSTAYMELRSLRSDDTAVYYCARSSGHYYYYGMDVWGQGTTVTVSS VL: DIVMTQSPLSLPVTPGEPASISCRSSQSLLHSNEYNYLDWYLQKPGQSPQLLIFLGSNRASGVPDRFSGSGSGTDFTLKITRVEAEDVGIYYCMQSLQTPLTFGGGTKVEIK"
31300 M⁻¹ s⁻¹,0.000332 s⁻¹,10.6 nM,"STIM001_457_LAGA (bispecific antibody, V domains shown, not shown: a dimerising Fc or GST, LAGA variant of STIM001_457) VH: QVQVVQSGAEVKKPGASVKVSCKASGYTFSTFGITWVRQAPGQGLEWMGWISAYNGDTNYAQNLQGRVIMTTDTSTSTAYMELRSLRSDDTAVYYCARSSGHYYYYGMDVWGQGTTVTVSS VL: DIVMTQSPLSLPVTPGEPASISCRSSQSLLHSNEYNYLDWYLQKPGQSPQLLIFLGSNRASGVPDRFSGSGSGTDFTLKITRVEAEDVGIYYCMQSLQTPLTFGGGTKVEIK"
477000 M⁻¹ s⁻¹,0.000278 s⁻¹,0.6 nM,"STIM003_289_LAGA (bispecific antibody, V domains shown, not shown: a dimerising Fc or GST, LAGA variant of STIM003_289) VH: EVQLVESGGGVVRPGGSLRLSCVASGVTFDDYGMSWVRQAPGKGLEWVSGINWNGGDTDYSDSVKGRFTISRDNAKNSLYLQMNSLRAEDTALYYCARDFYGSGSYYHVPFDYWGQGILVTVSS VL: EIVLTQSPGTLSLSPGERATLSCRASQSVSRSYLAWYQQKRGQAPRLLIYGASSRATGIPDRFSGDGSGTDFTLSISRLEPEDFAVYYCHQYDMSPFTFGPGTKVDIK"
284000 M⁻¹ s⁻¹,0.000232 s⁻¹,0.8 nM,"STIM003_457_LAGA (bispecific antibody, V domains shown, not shown: a dimerising Fc or GST, LAGA variant of STIM003_457) VH: EVQLVESGGGVVRPGGSLRLSCVASGVTFDDYGMSWVRQAPGKGLEWVSGINWNGGDTDYSDSVKGRFTISRDNAKNSLYLQMNSLRAEDTALYYCARDFYGSGSYYHVPFDYWGQGILVTVSS VL: EIVLTQSPGTLSLSPGERATLSCRASQSVSRSYLAWYQQKRGQAPRLLIYGASSRATGIPDRFSGDGSGTDFTLSISRLEPEDFAVYYCHQYDMSPFTFGPGTKVDIK"
